{"source": "paper PMC4947163", "about": "“RNA polymerase I–Rrn3 complex at 4.8 Å resolution” (Nature Communications, 2016)", "binders": {"B1": {"name": "Pol I subunit A34.5 (natural protein, S. cerevisiae, UniProt P47006 1-233, looked up)", "chain": "MSKLSKDYVSDSDSDDEVISNEFSIPDGFKKCKHLKNFPLNGDNKKKAKQQQVWLIKFPSNVDISKLKSLPVDFESSTTMTIDKHDYKIMDDTDIESSLTQDNLSNMTLLVPSESKESLKIASTAKDNAPLQFDKVFSVSETAKIPAIDYSKVRVPRKDVPKVEGLKLEHFATGYDAEDFHVAEEVKENKKEPKKRSHHDDEEESSEKKKKKKEKREKREKKDKKDKKKKHRD", "notes": "Pol I subunit A34.5, S. cerevisiae; Stood in the assay as a subunit of the whole Pol I; source: endogenous, purified from yeast as part of Pol I"}, "B2": {"name": "Rrn3 (natural protein, S. cerevisiae)", "chain": "MMAFENTSKRPPQDFVAPIDQKKRKVQFSDSTGLVTLQPEEIKDEVFSAAMYSRFVKSALDDLDKNDSTQIGIIANQVALPSKNPERINDKNLNILLDILSSNINRIESSRGTFLIQSIINFEKWWELPPHTLSKYIYFIKILCSSIPKWWQDVSMILVSCFILPIKQTVCHHDMLKYFLRMIPSSMGFIDTYLAKFFPNKNDTRRKLVNYTSNLLKLRGYCSELGFQIWSLLIEKIISIDVELQNELDELDDDVDDDDLEEVDLEDDDDLDDDSGDDDDENCGNSNEELRSGAADGSQSDSEDMDIIEGMDGTEEYNVELTQGIKELSTKLDSILTLVSTHVEEQVTPESLESGEGVGVFNTLTTLFKTHVLPTYYTRSIQYIMFHVSQQQLELMDSFLVTLIDISFAVNEAAEKKIKSLQYLGSYIARAKKLSRTQIIFVASYLTSWLNRYVIEREEEVDQRGGMERFKHFYAAFQALCYIFCFRHNIFRDTDGNWECELDKFFQRMVISKFNPLKFCNENVMLMFARIAQQESVAYCFSIIENNNNERLRGIIGKADSDKKENSAQANTTSSSWSLATRQQFIDLQSYFPYDPLFLKNYKILMKEYYIEWSEASGEYESDGSDD", "notes": "Rrn3, Pol I-specific initiation factor, S. cerevisiae; also called Pol I-specific initiation factor Rrn3"}, "B3": {"name": "Pol I subunit AC40 (natural protein, S. cerevisiae, UniProt P07703 1-335, looked up)", "chain": "MSNIVGIEYNRVTNTTSTDFPGFSKDAENEWNVEKFKKDFEVNISSLDAREANFDLINIDTSIANAFRRIMISEVPSVAAEYVYFFNNTSVIQDEVLAHRIGLVPLKVDPDMLTWVDSNLPDDEKFTDENTIVLSLNVKCTRNPDAPKGSTDPKELYNNAHVYARDLKFEPQGRQSTTFADCPVVPADPDILLAKLRPGQEISLKAHCILGIGGDHAKFSPVSTASYRLLPQINILQPIKGESARRFQKCFPPGVIGIDEGSDEAYVKDARKDTVSREVLRYEEFADKVKLGRVRNHFIFNVESAGAMTPEEIFFKSVRILKNKAEYLKNCPITQ", "notes": "Pol I subunit AC40, S. cerevisiae; Stood in the assay as a subunit of the whole Pol I; source: endogenous, purified from yeast as part of Pol I"}, "B4": {"name": "Pol I subunit AC19 (natural protein, S. cerevisiae, UniProt P28000 1-142, looked up)", "chain": "MTEDIEQKKTATEVTPQEPKHIQEEEEQDVDMTGDEEQEEEPDREKIKLLTQATSEDGTSASFQIVEEDHTLGNALRYVIMKNPDVEFCGYSIPHPSENLLNIRIQTYGETTAVDALQKGLKDLMDLCDVVESKFTEKIKSM", "notes": "Pol I subunit AC19, S. cerevisiae; Stood in the assay as a subunit of the whole Pol I; source: endogenous, purified from yeast as part of Pol I"}}, "test_in_all_cases": "cryo-EM structure; Pol I incubated with fivefold excess of Rrn3 and CF overnight at 4 °C, SEC in buffer A (150 mM sodium chloride, 5 mM HEPES pH 7.8, 1 mM magnesium chloride, 10 μM zinc chloride, 5 mM dithiothreitol), crosslinked with 1 mM BS3; single-particle reconstruction at 4.8 Å from 63,445 particles; crystal structures fitted as rigid bodies", "conditions_in_all_cases": "both partners purified", "key": {"Pol I subunit A49": {"target": "T1, Pol I subunit A49 (S. cerevisiae, UniProt Q01080 1-415)", "T1 construct": "Pol I subunit A49, S. cerevisiae; Stood in the assay as a subunit of the whole Pol I; source: endogenous, purified from yeast as part of Pol I", "T1 sequence (looked up)": "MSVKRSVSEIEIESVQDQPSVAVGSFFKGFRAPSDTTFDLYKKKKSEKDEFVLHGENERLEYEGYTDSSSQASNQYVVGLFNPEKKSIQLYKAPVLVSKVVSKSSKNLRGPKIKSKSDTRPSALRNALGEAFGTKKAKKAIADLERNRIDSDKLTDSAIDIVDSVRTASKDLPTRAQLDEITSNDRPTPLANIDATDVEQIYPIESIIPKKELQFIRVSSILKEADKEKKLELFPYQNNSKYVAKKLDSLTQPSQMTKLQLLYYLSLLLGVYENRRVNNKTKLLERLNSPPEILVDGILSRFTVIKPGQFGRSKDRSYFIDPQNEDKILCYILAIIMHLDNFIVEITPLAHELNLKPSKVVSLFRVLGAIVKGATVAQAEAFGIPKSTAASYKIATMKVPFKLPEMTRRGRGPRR"}, "Pol I subunit A135": {"target": "T2, Pol I subunit A135 (S. cerevisiae, UniProt P22138 1-1203)", "T2 construct": "Pol I subunit A135, S. cerevisiae; Stood in the assay as a subunit of the whole Pol I; source: endogenous, purified from yeast as part of Pol I", "T2 sequence (looked up)": "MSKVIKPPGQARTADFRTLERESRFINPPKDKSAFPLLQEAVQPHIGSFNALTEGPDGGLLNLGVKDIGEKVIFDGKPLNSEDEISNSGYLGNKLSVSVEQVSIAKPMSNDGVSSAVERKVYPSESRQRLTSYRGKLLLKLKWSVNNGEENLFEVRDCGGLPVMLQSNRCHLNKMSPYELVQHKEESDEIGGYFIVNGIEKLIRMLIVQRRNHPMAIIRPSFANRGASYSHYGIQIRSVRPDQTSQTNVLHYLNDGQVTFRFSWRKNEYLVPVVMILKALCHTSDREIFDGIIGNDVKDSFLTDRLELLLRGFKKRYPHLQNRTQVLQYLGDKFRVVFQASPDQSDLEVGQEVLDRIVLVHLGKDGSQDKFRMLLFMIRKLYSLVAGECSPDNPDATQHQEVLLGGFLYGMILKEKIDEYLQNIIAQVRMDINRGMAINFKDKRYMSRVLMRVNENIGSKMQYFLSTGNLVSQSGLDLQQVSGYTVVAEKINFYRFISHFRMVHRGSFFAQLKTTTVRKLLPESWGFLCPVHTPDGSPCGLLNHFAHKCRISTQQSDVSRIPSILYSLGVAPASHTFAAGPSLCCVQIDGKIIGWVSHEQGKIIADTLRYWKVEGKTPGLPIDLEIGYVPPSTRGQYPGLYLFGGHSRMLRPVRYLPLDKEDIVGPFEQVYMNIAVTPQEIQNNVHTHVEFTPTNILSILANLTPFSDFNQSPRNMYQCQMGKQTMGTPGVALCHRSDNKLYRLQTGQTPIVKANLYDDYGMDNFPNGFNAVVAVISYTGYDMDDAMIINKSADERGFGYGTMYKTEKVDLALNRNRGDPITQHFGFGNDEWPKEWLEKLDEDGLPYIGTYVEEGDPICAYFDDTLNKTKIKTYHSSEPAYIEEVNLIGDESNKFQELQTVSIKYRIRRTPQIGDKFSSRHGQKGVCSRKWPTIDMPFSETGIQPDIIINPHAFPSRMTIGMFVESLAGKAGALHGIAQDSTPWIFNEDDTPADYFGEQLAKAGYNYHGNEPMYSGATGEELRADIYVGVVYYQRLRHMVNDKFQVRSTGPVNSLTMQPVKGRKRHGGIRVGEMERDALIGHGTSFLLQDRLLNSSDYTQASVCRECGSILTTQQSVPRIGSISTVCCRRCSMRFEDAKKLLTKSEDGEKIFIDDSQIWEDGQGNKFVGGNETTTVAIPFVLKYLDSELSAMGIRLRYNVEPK"}, "Pol I subunit A190": {"target": "T3, Pol I subunit A190 (S. cerevisiae, UniProt P10964 1-1664)", "T3 construct": "Pol I subunit A190, S. cerevisiae; Stood in the assay as a subunit of the whole Pol I; source: endogenous, purified from yeast as part of Pol I", "T3 sequence (P10964 whole entry)": "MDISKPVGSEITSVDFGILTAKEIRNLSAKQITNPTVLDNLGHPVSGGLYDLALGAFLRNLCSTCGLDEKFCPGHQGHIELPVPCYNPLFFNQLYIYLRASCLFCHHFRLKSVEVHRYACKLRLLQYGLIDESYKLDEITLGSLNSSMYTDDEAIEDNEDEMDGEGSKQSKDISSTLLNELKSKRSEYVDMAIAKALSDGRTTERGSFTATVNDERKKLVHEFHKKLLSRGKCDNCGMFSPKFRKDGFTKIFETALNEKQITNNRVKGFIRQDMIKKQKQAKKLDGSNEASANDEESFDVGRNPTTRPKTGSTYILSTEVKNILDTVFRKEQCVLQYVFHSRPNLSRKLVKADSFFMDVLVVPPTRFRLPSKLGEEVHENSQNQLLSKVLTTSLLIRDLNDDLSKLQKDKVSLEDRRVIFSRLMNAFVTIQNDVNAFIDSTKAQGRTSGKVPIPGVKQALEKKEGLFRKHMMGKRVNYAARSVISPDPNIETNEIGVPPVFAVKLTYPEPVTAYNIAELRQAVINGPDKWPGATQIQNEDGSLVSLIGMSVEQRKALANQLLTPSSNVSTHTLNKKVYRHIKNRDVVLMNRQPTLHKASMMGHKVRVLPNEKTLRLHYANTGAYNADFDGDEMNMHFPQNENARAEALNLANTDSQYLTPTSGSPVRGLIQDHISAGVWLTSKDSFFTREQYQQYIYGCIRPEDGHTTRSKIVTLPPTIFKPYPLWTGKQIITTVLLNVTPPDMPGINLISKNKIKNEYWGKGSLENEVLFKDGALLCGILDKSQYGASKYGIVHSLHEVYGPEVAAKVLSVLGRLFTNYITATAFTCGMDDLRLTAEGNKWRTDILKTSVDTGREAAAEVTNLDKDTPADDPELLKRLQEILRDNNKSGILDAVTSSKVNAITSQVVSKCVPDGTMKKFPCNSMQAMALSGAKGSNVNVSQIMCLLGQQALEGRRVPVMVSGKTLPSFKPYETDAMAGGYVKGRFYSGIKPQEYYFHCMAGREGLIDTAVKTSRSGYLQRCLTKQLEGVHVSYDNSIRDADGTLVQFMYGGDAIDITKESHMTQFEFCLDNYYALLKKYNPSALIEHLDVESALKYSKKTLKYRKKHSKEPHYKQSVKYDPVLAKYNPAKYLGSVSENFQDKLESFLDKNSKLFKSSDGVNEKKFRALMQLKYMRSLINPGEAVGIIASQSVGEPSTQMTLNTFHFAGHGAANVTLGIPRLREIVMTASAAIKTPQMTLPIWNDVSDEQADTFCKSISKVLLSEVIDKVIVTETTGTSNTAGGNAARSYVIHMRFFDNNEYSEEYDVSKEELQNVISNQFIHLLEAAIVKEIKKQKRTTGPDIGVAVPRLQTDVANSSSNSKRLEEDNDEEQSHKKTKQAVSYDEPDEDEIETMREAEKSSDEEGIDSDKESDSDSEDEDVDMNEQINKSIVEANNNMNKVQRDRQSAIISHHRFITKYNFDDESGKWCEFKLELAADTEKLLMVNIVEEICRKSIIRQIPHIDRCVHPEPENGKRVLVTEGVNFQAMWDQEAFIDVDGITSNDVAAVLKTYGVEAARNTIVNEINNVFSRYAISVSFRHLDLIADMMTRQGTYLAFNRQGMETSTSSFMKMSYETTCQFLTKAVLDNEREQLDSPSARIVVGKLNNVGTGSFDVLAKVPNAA"}, "Rrn3": {"target": "B2"}, "Pol I subunit AC40": {"target": "B3"}}}
{"binder": "B1", "values": [{"measurement": "binding result", "setting": "Pol I subunit A49", "value": "binds"}]}
{"binder": "B2", "values": [{"measurement": "binding result", "setting": "Pol I subunit A135", "value": "binds"}, {"measurement": "binding result", "setting": "Pol I subunit A190", "value": "binds"}]}
{"binder": "B3", "values": [{"measurement": "binding result", "setting": "Rrn3", "value": "binds"}]}
{"binder": "B4", "values": [{"measurement": "binding result", "setting": "Rrn3", "value": "binds"}, {"measurement": "binding result", "setting": "Pol I subunit AC40", "value": "binds"}]}
